Data from the supplement of paper PMC10567573.

B1: MGC16075 (parent)
chain: AGSRQALSFEVPPCNYDPEKWIQ

Variants of: B1
Experiment: protein stability index of a GFP-peptide fusion (GPS, HEK-293T) (PSI 1-6); higher = more stable
Conditions: c terminus: native
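Note: lentivirally expressed fusions sorted by FACS into six bins by GFP to DsRed ratio, PSI derived from sequencing read proportions per bin multiplied by bin number.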

Compared with AGSRQALSFEVPGCNYDPEKWIQ [P13G], AGSRQALSFEVPRCNYDPEKWIQ [P13R] is lower in protein stability index: 2.1 for the first, 1.29 for the second.

Compared with AGSRQALSFEVPWCNYDPEKWIQ [P13W], AGSRQALSFEVPKCNYDPEKWIQ [P13K] is higher in protein stability index: 1.98 for the first, 2.34 for the second.

First: AGSRQALSFEVPLCNYDPEKWIQ [P13L]
Second: AGSRQALSFEVPACNYDPEKWIQ [P13A]
The protein stability index of the first is higher: 1.62 for the first, 1.43 for the second.

First: AGSRQALSFEVPVCNYDPEKWIQ [P13V]
Second: AGSRQALSFEVPPGNYDPEKWIQ [C14G]
The protein stability index of the first is higher: 2.19 for the first, 1.42 for the second.

First: AGSRQALSFEVPPANYDPEKWIQ [C14A]
Second: AGSRQALSFEVPPWNYDPEKWIQ [C14W]
The protein stability index of the first is higher: 2.28 for the first, 1.56 for the second.

First: AGSRQALSFEVPPLNYDPEKWIQ [C14L]
Second: AGSRQALSFEVPPSNYDPEKWIQ [C14S]
The protein stability index of the first is lower: 1.39 for the first, 2.56 for the second.

First: AGSRQALSFEVPPINYDPEKWIQ [C14I]
Second: AGSRQALSFEVPPYNYDPEKWIQ [C14Y]
The protein stability index of the first is lower: 1.59 for the first, 2.23 for the second.

AGSRQALSFEVPPRNYDPEKWIQ [C14R] and AGSRQALSFEVPPNNYDPEKWIQ [C14N] are the same in protein stability index: 1.92 for the first, 1.92 for the second.

Compared with AGSRQALSFEVPPENYDPEKWIQ [C14E], AGSRQALSFEVPPKNYDPEKWIQ [C14K] is lower in protein stability index: 2.21 for the first, 1.64 for the second.

First: AGSRQALSFEVPPFNYDPEKWIQ [C14F]
Second: AGSRQALSFEVPPMNYDPEKWIQ [C14M]
The protein stability index of the first is higher: 1.5 for the first, 1.23 for the second.

Compared with AGSRQALSFEVPPHNYDPEKWIQ [C14H], AGSRQALSFEVPPVNYDPEKWIQ [C14V] is lower in protein stability index: 2.1 for the first, 1.95 for the second.

First: AGSRQALSFEVPPTNYDPEKWIQ [C14T]
Second: AGSRQALSFEVPPDNYDPEKWIQ [C14D]
The protein stability index of the first is higher: 2.2 for the first, 2 for the second.

First: AGSRQALSFEVPPQNYDPEKWIQ [C14Q]
Second: AGSRQALSFEYPPCNYDPEKWIQ [V11Y]
The protein stability index of the first is lower: 2.05 for the first, 3.25 for the second.

First: AGSRQALSFEQPPCNYDPEKWIQ [V11Q]
Second: AGSRQALSFERPPCNYDPEKWIQ [V11R]
The protein stability index of the first is higher: 2.38 for the first, 2 for the second.

Compared with AGSRQALSFETPPCNYDPEKWIQ [V11T], AGSRQALSFEWPPCNYDPEKWIQ [V11W] is higher in protein stability index: 1.89 for the first, 2.04 for the second.

First: AGSRQALSFESPPCNYDPEKWIQ [V11S]
Second: AGSRQALSFEVPPCNYDVEKWIQ [P18V]
The protein stability index of the first is lower: 1.84 for the first, 1.99 for the second.

First: AGSRQALSFEVPPCNYDHEKWIQ [P18H]
Second: AGSRQALSFEVPPCNYDMEKWIQ [P18M]
The protein stability index of the first is lower: 1.84 for the first, 1.91 for the second.

Compared with AGSRQALSFEVPPCNYDIEKWIQ [P18I], AGSRQALSFEVPPCNYDNEKWIQ [P18N] is higher in protein stability index: 1.92 for the first, 2.15 for the second.

First: AGSRQALSFEVPPCNYDGEKWIQ [P18G]
Second: AGSRQALSFEVPPCNYDSEKWIQ [P18S]
The protein stability index of the first is higher: 2.41 for the first, 1.78 for the second.

Going from AGSRQALSFEVPPCNYDEEKWIQ [P18E] to AGSRQALSFEVPPCNYDTEKWIQ [P18T], the protein stability index falls from 2.79 to 1.82.

Going from AGSRQALSFEVPPCNYDDEKWIQ [P18D] to AGSRQALSFEVPPCNYDREKWIQ [P18R], the protein stability index rises from 1.93 to 2.36.

Compared with AGSRQALSFEVPPCNYDWEKWIQ [P18W], AGSRQALSFEVPPCNYDQEKWIQ [P18Q] is higher in protein stability index: 1.1 for the first, 2.03 for the second.

Compared with AGSRQALSFEVPPCNYDKEKWIQ [P18K], AGSRQALSFEVPPCNYDAEKWIQ [P18A] is lower in protein stability index: 1.79 for the first, 1.62 for the second.

Going from AGSRQALSFEVPPCNYDCEKWIQ [P18C] to AGSRQALSFEVPPCNYDLEKWIQ [P18L], the protein stability index rises from 2.3 to 2.72.

First: AGSRQALSFEVPPCNYDFEKWIQ [P18F]
Second: AGSRQALSFEVPPCNYDYEKWIQ [P18Y]
The protein stability index of the first is lower: 1.6 for the first, 1.87 for the second.

Compared with AGSRQALSFEVPPCNYDPESWIQ [K20S], AGSRQALSFEVPPCNYDPEVWIQ [K20V] is lower in protein stability index: 3.77 for the first, 1.96 for the second.

First: AGSRQALSFEVPPCNYDPERWIQ [K20R]
Second: AGSRQALSFEVPPCNYDPETWIQ [K20T]
The protein stability index of the first is lower: 1.98 for the first, 3.33 for the second.

Compared with AGSRQALSFEVPPCNYDPECWIQ [K20C], AGSRQALSFEVPPCNYDPEPWIQ [K20P] is higher in protein stability index: 2.26 for the first, 4.17 for the second.

First: AGSRQALSFEVPPCNYDPEYWIQ [K20Y]
Second: AGSRQALSFEVPPCNYDPEMWIQ [K20M]
The protein stability index of the first is higher: 3.78 for the first, 2.69 for the second.

Going from AGSRQALSFEVPPCNYDPEHWIQ [K20H] to AGSRQALSFEVPPCNYDPEIWIQ [K20I], the protein stability index falls from 3.7 to 2.46.

Going from AGSRQALSFEVPPCNYDPEAWIQ [K20A] to AGSRQALSFEVPPCNYDPENWIQ [K20N], the protein stability index falls from 3.93 to 3.71.

Going from AGSRQALSFEVPPCNYDPEDWIQ [K20D] to AGSRQALSFEVPPCNYDPEFWIQ [K20F], the protein stability index falls from 4.29 to 3.49.

First: AGSRQALSFEVPPCNYDPEGWIQ [K20G]
Second: AGSRQALSFEVPPCNYDPEWWIQ [K20W]
The protein stability index of the first is higher: 3.9 for the first, 3.58 for the second.

Going from AGSRQALSFEVPPCNYDPEQWIQ [K20Q] to AGSRQALSFEVPPCNYDPEKHIQ [W21H], the protein stability index falls from 4.32 to 2.32.

First: AGSRQALSFEVPPCNYDPEKVIQ [W21V]
Second: AGSRQALSFEVPPCNYDPEKMIQ [W21M]
The protein stability index of the first is lower: 2.88 for the first, 3.23 for the second.

Compared with AGSRQALSFEVPPCNYDPEKDIQ [W21D], AGSRQALSFEVPPCNYDPEKFIQ [W21F] is lower in protein stability index: 3.28 for the first, 2.89 for the second.

Going from AGSRQALSFEVPPCNYDPEKRIQ [W21R] to AGSRQALSFEVPPCNYDPEKIIQ [W21I], the protein stability index rises from 2.16 to 4.03.

Going from AGSRQALSFEVPPCNYDPEKPIQ [W21P] to AGSRQALSFEVPPCNYDPEKQIQ [W21Q], the protein stability index falls from 5.2 to 2.83.

Compared with AGSRQALSFEVPPCNYDPEKNIQ [W21N], AGSRQALSFEVPPCNYDPEKKIQ [W21K] is higher in protein stability index: 2.42 for the first, 3.53 for the second.

First: AGSRQALSFEVPPCNYDPEKLIQ [W21L]
Second: AGSRQALSFEVPPCNYDPEKAIQ [W21A]
The protein stability index of the first is lower: 2.17 for the first, 2.33 for the second.

Going from AGSRQALSFEVVPCNYDPEKWIQ [P12V] to AGSRQALSFEVQPCNYDPEKWIQ [P12Q], the protein stability index falls from 2.72 to 2.

First: AGSRQALSFEVSPCNYDPEKWIQ [P12S]
Second: AGSRQALSFEVAPCNYDPEKWIQ [P12A]
The protein stability index of the first is lower: 1.71 for the first, 1.79 for the second.

Going from AGSRQALSFEVNPCNYDPEKWIQ [P12N] to AGSRQALSFEVCPCNYDPEKWIQ [P12C], the protein stability index rises from 1.67 to 2.41.

First: AGSRQALSFEVLPCNYDPEKWIQ [P12L]
Second: AGSRQALSFEVDPCNYDPEKWIQ [P12D]
The protein stability index of the first is higher: 4.23 for the first, 1.97 for the second.

Compared with AGSRQALSFEVMPCNYDPEKWIQ [P12M], AGSRQALSFEVFPCNYDPEKWIQ [P12F] is higher in protein stability index: 2.33 for the first, 2.92 for the second.

First: AGSRQALSFEVEPCNYDPEKWIQ [P12E]
Second: AGSRQALSFEVWPCNYDPEKWIQ [P12W]
The protein stability index of the first is lower: 2.14 for the first, 2.69 for the second.

Going from AGSRQALSFEVRPCNYDPEKWIQ [P12R] to AGSRQALSFEVGPCNYDPEKWIQ [P12G], the protein stability index falls from 1.81 to 1.37.

Compared with AGSRQALSFEVTPCNYDPEKWIQ [P12T], AGSRQALSFEVKPCNYDPEKWIQ [P12K] is lower in protein stability index: 1.99 for the first, 1.73 for the second.

With AGSRQALSFEVIPCNYDPEKWIQ [P12I] the protein stability index was 1.17.
